Assay results: US20140179896A1 (published 2014)

The binders below were run against T1, human vascular endothelial growth factor receptor-2 Fc chimera (KDR-Fc) (human, UniProt P35968 20-764) (assay: radioactive equilibrium binding, 1 nM KDR-Fc).
T1 construct: range 1-764; purchased from R&D Systems; also called hKDR; human VEGF-R2-Fc; not shown: human IgG1 Fc
Summary of the method: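 Percent of input bound is specific binding: total ³⁵S eluted from Protein A beads minus nonspecific bead binding without receptor. The binder (0.2 or 0.5 nM) was incubated with titrated VEGF-R2-Fc in buffer B, 30° C, 1 h.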

T1 sequence (P35968 20-764 limits assumed, change not shown, form in doubt): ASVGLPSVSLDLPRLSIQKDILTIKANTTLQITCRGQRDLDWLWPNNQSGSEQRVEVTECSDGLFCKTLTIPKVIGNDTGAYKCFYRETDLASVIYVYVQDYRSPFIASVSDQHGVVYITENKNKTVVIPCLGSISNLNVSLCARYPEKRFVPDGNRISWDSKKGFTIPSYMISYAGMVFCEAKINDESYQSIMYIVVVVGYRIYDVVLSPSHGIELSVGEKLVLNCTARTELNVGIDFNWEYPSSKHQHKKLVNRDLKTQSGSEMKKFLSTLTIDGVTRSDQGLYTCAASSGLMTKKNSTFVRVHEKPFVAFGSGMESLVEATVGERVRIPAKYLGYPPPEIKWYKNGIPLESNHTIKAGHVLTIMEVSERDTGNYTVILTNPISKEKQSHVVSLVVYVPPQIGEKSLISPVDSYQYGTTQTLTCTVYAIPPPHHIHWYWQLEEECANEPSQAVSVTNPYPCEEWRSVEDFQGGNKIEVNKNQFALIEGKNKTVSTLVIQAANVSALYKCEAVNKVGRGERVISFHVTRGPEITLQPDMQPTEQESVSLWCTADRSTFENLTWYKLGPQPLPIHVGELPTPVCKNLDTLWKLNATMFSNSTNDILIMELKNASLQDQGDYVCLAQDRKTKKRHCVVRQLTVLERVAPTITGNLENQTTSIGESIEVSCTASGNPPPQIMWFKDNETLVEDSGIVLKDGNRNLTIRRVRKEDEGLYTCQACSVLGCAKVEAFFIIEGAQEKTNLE

| Binder | Binding to 1 nM KDR, % |
| --- | --- |
| 1′DelH7 PR4 (designed binder, tag left out) EVVAATPTSLLISWRHPHFPTRYYRITYGETGGNSPVQEFTVPLQPPTATISGLKPGVDYTITGYAVTVGQNDQELLTPISINYRT | 11% |
| 3C5 PR3 (designed binder, tag left out) EVVAATPTSLLISWRHPHFPTRYYRITYGETGGNSPVQEFTVPLQPPTATISGLKPGVDYTITGYAVTGDHNDRELMTPISINYRT | 12% |
| 3D4 PR3 (designed binder, tag left out) EVVAATPTSLLISWRHPHFPTRYYRITYGETGGNSPVQEFTVPLQPPTATISGLKPGVDYTITGYAVTVGWNDHELITPISINYRT | 10% |
| 3H9 PR3 (designed binder, tag left out) EVVAATPTSLLISWRHPHFPTRYYRITYGETGGNSPVQEFTVPLQPPTATISGLKPGVDYTITGYAVTVSQQNHELLTPISINYRT | 11% |
| 2′DelB9 PR4 (designed binder, tag left out) EVVAATPTSLLISWRHPHFPTRYYRITYGETGGNSPVQEFTVPLQPPTATISGLKPGVDYTITGYAVTVGPTDHELLTPISINYRT | 11% |
| 3F5 PR3 (designed binder, tag left out) EVVAATPTSLLISWRHPHFPTRYYRITYGETGGNSPVQEFTVPLQPPTATISGLKPGVDYTITGYAVTVAYNEHELYTPISINYRT | 11% |
| 3G10 PR3 (designed binder, tag left out) EVVAATPTSLLISWRHPHFPTRYYRITYGETGGNSPVQEFTVPLQPPTATISGLKPGVDYTITGYAVTVVHNGHEILTPISINYRT | 10% |
| 2′DelB11 PR4 (designed binder, tag left out) EVVAATPTSLLISWRHPHFPTRYYRITYGETGGNSPVQEFTVPLQPPTATISGLKPGVDYTITGYAVTVGQNDHELMTPISINYRT | 11% |
| 3G1 PR3 (designed binder, tag left out) EVVAATPTSLLISWRHPHFPTRYYRITYGETGGNSPVQEFTVPLQPPTATISGLKPGVDYTITGYAVTMAQNVRELLTPISINYRT | 13% |
| 3G5 PR3 (designed binder, tag left out) EVVAATPTSLLISWRHPHFPTRYYRITYGETGGNSPVQEFTVPLQPPTATISGLKPGVDYTITGYAVTLGENDRKLITPISINYRT | 13% |
| 3A8 PR3 (designed binder, tag left out) EVVAATPTSLLISWRHPHFPTRYYRITYGETGGNSPVQEFTVPLQPPTATISGLKPGVDYTITGYAVTEAHHGHELMIPISINYRT | 12% |
| 3F11 PR3 (designed binder, tag left out) EVVAATPTSLLISWRHPHFPTRYYRITYGETGGNSPVQEFTVPLQPPTATISGLKPGVDYTITGYAVTVGLTDHVLLTPISINYRT | 10% |
| 2′Del E12 PR4 (designed binder, tag left out) EVVAATPTSLLISWRHPHFPTRYYRITYGETGGNSPVQEFTVPLQPPTATISGLKPGVDYTITGYAVTEGPNGHELITPISINYRT | 13% |
| 3F4 PR3 (designed binder, tag left out) EVVAATPTSLLISWRHPHFPTRYYRITYGETGGNSPVQEFTVPLQPPTATISGLKPGVDYTITGYAVTMGYEDHELITPISINYRT | 10% |
| 2′Del F12 PR4 (designed binder, tag left out) EVVAATPTSLLISWRHPHFPTRYYRITYGETGGNSPVQEFTVPLQPPTATISGLKPGVDYTITGYAVTLTQHDHELLTPISINYRT | 7% |
| 2′DelH2 PR4 (designed binder, tag left out) EVVAATPTSLLISWRHPHFPTRYYRITYGETGGNSPVQEFTVPLQPPTATISGLKPGVDYTITGYAVTVSQYGHELITPISINYRT | 8% |
| 3D11 PR3 (designed binder, tag left out) EVVAATPTSLLISWRHPHFPTRYYRITYGETGGNSPVQEFTVPLQPPTATISGLKPGVDYTITGYAVTLGQENQELITPISINYRT | 10% |
| 3E6 PR3 (designed binder, tag left out) EVVAATPTSLLISWRHPHFPTRYYRITYGETGGNSPVQEFTVPLQPPTATISGLKPGVDYTITGYAVTVPQNGHELITMISINYRT | 12% |
| 3F1 PR3 (designed binder, tag left out) EVVAATPTSLLISWRHPHFPTRYYRITYGETGGNSPVQEFTVPLQPPTATISGLKPGVDYTITGYAVTLTHNEQYLFTPISINYRT | 9% |
| 1′DelH9 PR4 (designed binder, tag left out) EVVAATPTSLLISWRHPHFPTRYYRITYGETGGNSPVQEFTVPLQPPTATISGLKPGVDYTITGYAVTVGQNDHELITPISINYRT | 10% |
| 2′DelB10 PR4 (designed binder, tag left out) EVVAATPTSLLISWRHPHFPTRYYRITYGETGGNSPVQEFTVPLQPPTATISGLKPGVDYTITGYAVTVTHNDHELLTPISINYRT | 11% |

Further lines, results first:

| Binding to 1 nM KDR, % | Binder |
| --- | --- |
| 8% | 4G4 PR3 (designed binder, tag left out) EVVAATPTSLLISWRHPHFPTRYYRITYGETGGNSPVQEFTVPLQPPTATISGLKPGVDYTITGYAVTLGQNDHELLTPISINYRT |
| 12% | 3′E4 PR4 (designed binder, tag left out) EVVAATPTSLLISWRHPHFPTRYYRITYGETGGNSPVQEFTVPLQPPTATISGLKPGVDYTITGYAVTVGPNDRELIVPISINYRT |
| 13% | 4B7 PR3 (designed binder, tag left out) EVVAATPTSLLISWRHPHFPTRYYRITYGETGGNSPVQEFTVPLQPPTATISGLKPGVDYTITGYAVTVTQNDHELFTPISINYRT |
| 13% | 4′G8 PR4 (designed binder, tag left out) EVVAATPTSLLISWRHPHFPTRYYRITYGETGGNSPVQEFTVPLQPPTATISGLKPGVDYTITGYAVTVAQNGHELLTPISINYRT |
| 14% | 3′F7 PR4 (designed binder, tag left out) EVVAATPTSLLISWRHPHFPTRYYRITYGETGGNSPVQEFTVPLQPPTATISGLKPGVDYTITGYAVTEGQNGSELIVPISINYRT |
| 9% | 3′A3 PR4 (designed binder, tag left out) EVVAATPTSLLISWRHPHFPTRYYRITYGETGGNSPVQEFTVPLQPPTATISGLKPGVDYTITGYAVTRAQNDHELITPISINYRT |
| 5% | 3′E6 PR4 (designed binder, tag left out) EVVAATPTSLLISWRHPHFPTRYYRITYGETGGNSPVQEFTVPLQPPTATISGLKPGVDYTITGYAVTFGQNGKEFRIPISINYRT |
| 13% | 4F12 PR3 (designed binder, tag left out) EVVAATPTSLLISWRHPHFPTRYYRITYGETGGNSPVQEFTVPLQPPTATISGLKPGVDYTITGYAVTVTQNGHELITPISINYRT |
| 12% | 3′D4 PR4 (designed binder, tag left out) EVVAATPTSLLISWRHPHFPTRYYRITYGETGGNSPVQEFTVPLQPPTATISGLKPGVDYTITGYAVTLAHNDRELITPISINYRT |
| 8% | 4D2 PR3 (designed binder, tag left out) EVVAATPTSLLISWRHPHFPTRYYRITYGETGGNSPVQEFTVPLQPPTATISGLKPGVDYTITGYAVTVAQNNHELITPISINYRT |
| 12% | 3′E8 PR4 (designed binder, tag left out) EVVAATPTSLLISWRHPHFPTRYYRITYGETGGNSPVQEFTVPLQPPTATISGLKPGVDYTITGYAVTVAQNDRQLFTPISINYRT |
| 14% | 4C11 PR3 (designed binder, tag left out) EVVAATPTSLLISWRHPHFPTRYYRITYGETGGNSPVQEFTVPLQPPTATISGLKPGVDYTITGYAVTMAQNDRELITPISINYRT |
| 10% | 4C4 PR3 (designed binder, tag left out) EVVAATPTSLLISWRHPHFPTRYYRITYGETGGNSPVQEFTVPLQPPTATISGLKPGVDYTITGYAVTVAQDDHELFTPISINYRT |
| 6% | 4A3 PR3 (designed binder, tag left out) EVVAATPTSLLISWRHPHFPTRYYRITYGETGGNSPVQEFTVPLQPPTATISGLKPGVDYTITGYAVTVAQDEHELITPISINYRT |
| 14% | 4B6 PR3 (designed binder, tag left out) EVVAATPTSLLISWRHPHFPTRYYRITYGETGGNSPVQEFTVPLQPPTATISGLKPGVDYTITGYAVTVGQNDHELFTPISINYRT |
| 8% | 4A2 PR3 (designed binder, tag left out) EVVAATPTSLLISWRHPHFPTRYYRITYGETGGNSPVQEFTVPLQPPTATISGLKPGVDYTITGYAVTVAQNAHELMTPISINYRT |
| 11% | 4′B6 PR4 (designed binder, tag left out) EVVAATPTSLLISWRHPHFPTRYYRITYGETGGNSPVQEFTVPLQPPTATISGLKPGVDYTITGYAVTLAQNDHELITPISINYRT |
| 7% | 3′D12 PR4 (designed binder, tag left out) EVVAATPTSLLISWRHPHFPTRYYRITYGETGGNSPVQEFTVPLQPPTATISGLKPGVDYTITGYAVTGEQNDYELLVPISINYRT |
